# In publication PMC3477848 (Biochemistry, 2012):
# Like-named read-outs stand apart in the source and are kept apart here.
# T1: Dpo1 exo- (SsoDpo1, B-family DNA polymerase) (Sulfolobus solfataricus, UniProt P26811 1-882, D231A;D318A)
# T1 sequence: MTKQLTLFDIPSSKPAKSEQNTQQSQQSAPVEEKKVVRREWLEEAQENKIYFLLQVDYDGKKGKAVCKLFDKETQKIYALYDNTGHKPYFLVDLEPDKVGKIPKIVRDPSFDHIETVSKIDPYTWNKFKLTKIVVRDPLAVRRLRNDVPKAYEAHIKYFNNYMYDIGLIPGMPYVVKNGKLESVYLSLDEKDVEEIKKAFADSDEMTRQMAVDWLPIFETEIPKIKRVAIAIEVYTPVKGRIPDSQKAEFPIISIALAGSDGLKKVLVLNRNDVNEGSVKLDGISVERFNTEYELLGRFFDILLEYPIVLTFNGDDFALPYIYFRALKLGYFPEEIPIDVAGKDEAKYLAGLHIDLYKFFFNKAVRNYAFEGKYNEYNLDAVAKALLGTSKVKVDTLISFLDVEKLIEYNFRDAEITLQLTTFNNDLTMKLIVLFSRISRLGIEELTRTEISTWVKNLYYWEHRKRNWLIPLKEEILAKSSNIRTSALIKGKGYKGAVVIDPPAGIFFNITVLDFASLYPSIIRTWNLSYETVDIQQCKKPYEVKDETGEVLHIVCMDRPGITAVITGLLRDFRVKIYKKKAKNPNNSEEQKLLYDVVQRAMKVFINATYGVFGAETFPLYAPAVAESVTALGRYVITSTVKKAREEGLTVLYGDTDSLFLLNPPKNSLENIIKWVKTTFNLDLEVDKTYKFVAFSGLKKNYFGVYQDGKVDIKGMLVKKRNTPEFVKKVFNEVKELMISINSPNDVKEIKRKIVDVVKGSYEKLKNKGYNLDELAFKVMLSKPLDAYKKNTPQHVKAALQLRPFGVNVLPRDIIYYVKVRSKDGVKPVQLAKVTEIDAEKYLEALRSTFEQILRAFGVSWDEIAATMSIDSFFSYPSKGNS
# T2: Dpo4 (SsoDpo4, Y-family DNA polymerase) (Sulfolobus solfataricus, UniProt Q97W02 1-352)
# T2 sequence: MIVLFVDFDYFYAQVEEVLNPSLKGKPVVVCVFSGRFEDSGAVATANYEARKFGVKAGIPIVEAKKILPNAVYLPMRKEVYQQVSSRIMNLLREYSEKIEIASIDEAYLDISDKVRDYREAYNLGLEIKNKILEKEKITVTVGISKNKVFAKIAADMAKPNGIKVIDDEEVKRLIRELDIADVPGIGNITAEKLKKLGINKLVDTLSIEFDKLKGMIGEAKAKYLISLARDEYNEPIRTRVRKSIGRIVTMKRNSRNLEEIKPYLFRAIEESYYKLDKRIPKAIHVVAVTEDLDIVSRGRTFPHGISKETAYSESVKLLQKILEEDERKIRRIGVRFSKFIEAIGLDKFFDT
# Key:
# Experiment in all cases: fluorescence anisotropy
# [1] = target: T1, Dpo1 exo- (SsoDpo1, B-family DNA …)
# [2] = target: T1, Dpo1 exo- (SsoDpo1, B-family DNA …); remark: listed apart in the source
# [3] = target: T1, Dpo1 exo- (SsoDpo1, B-family DNA …); remark: listed apart in the source
# [4] = target: T2, Dpo4 (SsoDpo4, Y-family DNA polymerase)
# [5] = target: T1, Dpo1 exo- (SsoDpo1, B-family DNA …); remark: listed apart in the source
# [6] = target: T2, Dpo4 (SsoDpo4, Y-family DNA polymerase); remark: listed apart in the source
# [7] = target: T2, Dpo4 (SsoDpo4, Y-family DNA polymerase); remark: listed apart in the source
binder,measurement,setting,value
"TTTTTTTTTTCCCGGGCCGGCGTTTCGCCGGCCCGGG (structured_DNA) [37-nt hairpin primer-template, 5'-Cy3]",Kd,[1],0.144 ± 0.003 µM
same,Kd,[2],0.109 ± 0.016 µM
same,Kd,[3],0.097 ± 0.003 µM
same,Kd,[4],0.133 ± 0.026 µM
same,Kd,[5],0.17 ± 0.023 µM
same,Kd,[6],0.214 ± 0.003 µM
same,Kd,[7],0.674 ± 0.08 µM
